Test system: MS2 coat protein
Assay: apparent KD of MS2 coat protein; designed switch direction (-1 OFF switch, 1 ON switch): 1; higher = weaker reporter binding
Summary of the method: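 Designed RNA switches were transcribed on Illumina chips by stalled E. coli RNA polymerase and titrated with SNAP-549-labelled MS2 coat protein from 0.7 or 1.5 nM, doubling to 3 µM. Step length ran from 0.8–1.5 h at the lowest concentration to 10–20 min at the highest. The apparent KD is the median over clusters for each design, from curve-fitted normalised cluster fluorescence.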

[1] = input ligand: microRNA oligo, concentration not stated
[2] = Eterna round: R95, input ligand: FMN 200 uM
[3] = Eterna round: R95, input ligand: microRNA oligo, concentration not stated
[4] = Eterna round: R95, input ligand: none

AGAUCAUGACGAGGAUAUGCCACAUGAGGAUCACCCAUGUAUGUGGUAGGACGCGUACGUCCAAAGCAGAAGGCGUCGUGAUCA [Mat - Same State NG 2 - JL mod - D36] (Eterna round: R96, puzzle: Same State NG 2)
apparent KD of MS2 coat protein (input ligand: FMN 200 uM): 21.5 nM
apparent KD of MS2 coat protein [1]: 37.6 nM
apparent KD of MS2 coat protein (input ligand: none): 47.9 nM

CCGGUGAUAGGGCAGGAUAUGACUGUCGUCACAUGAGGAUCACCCAUGUCCCGGCAAUGCCACCGUUAGAAGGGCCCUAUCCCGA [Teuszaesti] (puzzle: Same State 2)
apparent KD of MS2 coat protein [2]: 14.8 nM
apparent KD of MS2 coat protein [3]: 12.1 nM
apparent KD of MS2 coat protein [4]: 15 nM

UCGGGCGUACUUGCUGACAUGAGGAUCACCCAUGUCCUUGGGCAGGAUAUGGUUCCGUUUCGGUUCCAGAAGGUCCUGGCUGCU [salish99_SSNG3_r04_318] (Eterna round: R96, puzzle: Same State NG 3)
apparent KD of MS2 coat protein (input ligand: FMN 200 uM): 18.1 nM
apparent KD of MS2 coat protein [1]: 24.4 nM
apparent KD of MS2 coat protein (input ligand: none): 25.5 nM

GGAAAGAGGUUAGGAUAUGCAUGGCUGGGACAUGAGGAUCACCCAUGUAAUAGAAGAAAUCUACAGUAGAAGGGACAAGGAAGG [AK SSNG2-V2-8] (Eterna round: R96, puzzle: Same State NG 2)
apparent KD of MS2 coat protein (input ligand: FMN 200 uM): 759 nM
apparent KD of MS2 coat protein [1]: 262 nM
apparent KD of MS2 coat protein (input ligand: none): 224 nM

UGCUUCGUGUGAGGAUAUGCUGCCGUUUCGGCUGCAGAAGGUACUAUAAUACAUGAGGAUCACCCAUGUCUGUCGGUUUGCGGG [salish99_SSng1_r04_305-lowA] (Eterna round: R96, puzzle: Same State NG 1)
apparent KD of MS2 coat protein (input ligand: FMN 200 uM): 46.4 nM
apparent KD of MS2 coat protein [1]: 28.8 nM
apparent KD of MS2 coat protein (input ligand: none): 49.3 nM

CAGCGCUGUCGAGAGGAUAUGCUGUGAUGGACAUGAGGAUCACCCAUGUUAGCGAUAGCAUUACUGUAGAAGGCUCUACAGCUGC [Soteed - 15] (puzzle: Same State 2)
apparent KD of MS2 coat protein [3]: 10.9 nM

AGUCCAGCAUGAGCUGGACAAAAGCAUGUACAUGAGGAUCACCCAUGUUCAUGUACAAGCUUUUUGCAAGUCAAAAU [Mat - hsa-mir-208a - Mod of JL - 81] (puzzle: Sensor for hsa-mir-208a)
apparent KD of MS2 coat protein [2]: 614 nM
apparent KD of MS2 coat protein [3]: 17.8 nM
apparent KD of MS2 coat protein [4]: 595 nM

GUGCGAGUGCCACAGGAUAUACGUGGAUCGACAUGAGGAUCACCCAUGUAUAUCCUAAUAAUUGCGUAGAAGGGUGGUCAGUCGG [Inzage] (Eterna round: R96, puzzle: Same State 2)
apparent KD of MS2 coat protein (input ligand: FMN 200 uM): 164 nM
apparent KD of MS2 coat protein [1]: 313 nM
apparent KD of MS2 coat protein (input ligand: none): 478 nM

GGAGAAUAACUAGAGGAUAUCCGAGUGGUAACAUGAGGAUCACCCAUGUGAUGAAAGGAACAUGAGGAGAAGGCUAGAAUGAAGG [Mat - Same State 2 - Mod of JL - D85] (puzzle: Same State 2)
apparent KD of MS2 coat protein [2]: 37.3 nM
apparent KD of MS2 coat protein [3]: 34.9 nM
apparent KD of MS2 coat protein [4]: 77.6 nM

AGUCCAGCCUGAGCUGGACAAAAGCAUGUACAUGAGGAUCACCCAUGUUCGUGUACAAGCUUUUUGCUCGUCUUAAA [Zipper 52 - 5] (puzzle: Sensor for hsa-mir-208a)
apparent KD of MS2 coat protein [2]: 518 nM
apparent KD of MS2 coat protein [3]: 13.5 nM
apparent KD of MS2 coat protein [4]: 725 nM

GGAGCCAAGGCAGGAUAUUCAUAUUAAUAACACAUGAGGAUCACCCAUGUGGCCAGAAGGCCAUGGGAGAAGGGCCAUGGCUCG [Xeonanis - 13 mod10] (Eterna round: R96, puzzle: Same State NG 2)
apparent KD of MS2 coat protein (input ligand: FMN 200 uM): 86.3 nM
apparent KD of MS2 coat protein [1]: 195 nM
apparent KD of MS2 coat protein (input ligand: none): 469 nM

UCUUGGUUUUUGCUCGUUUUUUGUGUUGAACAUGAGGAUCACCCAUGUAUUGUACGGUCCAAUUUAGUAGUGGUCCG [JMF 25] (puzzle: Sensor for hsa-mir-208a)
apparent KD of MS2 coat protein [2]: 26.6 nM
apparent KD of MS2 coat protein [3]: 15.3 nM
apparent KD of MS2 coat protein [4]: 26.2 nM

AAUCCUGUCACAGGAUAUCCAAGGUAAACCCUCGGAGAAGGGUGAUAGUCUAACAAACACACACAUGAGGAUCACCCAUGUUAA [Usxeus] (Eterna round: R96, puzzle: Same State NG 1)
apparent KD of MS2 coat protein (input ligand: FMN 200 uM): 52.4 nM
apparent KD of MS2 coat protein [1]: 40.1 nM
apparent KD of MS2 coat protein (input ligand: none): 83.6 nM

GGCCUGGGUCAAGGAUAUGCUACCGUUUCGGUAGCAGAAGGUGAUCACAUGAGGAUCACCCAUGUUUACGCGAAGACGCGCGCC (Eterna round: R96, puzzle: Same State NG 1)
apparent KD of MS2 coat protein (input ligand: FMN 200 uM): 526 nM
apparent KD of MS2 coat protein [1]: 59.3 nM
apparent KD of MS2 coat protein (input ligand: none): 405 nM

UGGUACAUGGGAGGAUAUGGAGUGAUGACAUGAGGAUCACCCAUGUUAAAUAUGCCGAGAGGCAACUAGAAGGCCCAUGUACCU [JL SSNG1 3.98] (Eterna round: R96, puzzle: Same State NG 2)
apparent KD of MS2 coat protein (input ligand: FMN 200 uM): 22.3 nM
apparent KD of MS2 coat protein [1]: 298 nM
apparent KD of MS2 coat protein (input ligand: none): 418 nM

CAAGCUUGGGUCGUCCCGCUCGUCUUCAAACAUGAGGAUCACCCAUGUAUACUCUUCACAUCAAUUCUAUCUCUUAA [Ralasoerin] (puzzle: Sensor for hsa-mir-208a)
apparent KD of MS2 coat protein [2]: 255 nM
apparent KD of MS2 coat protein [3]: 22.8 nM
apparent KD of MS2 coat protein [4]: 289 nM

UUGUUUCGUCAUUAACAUGAGGAUCACCCAUGUCUUGGCCCAGAGGAUAUGCAUGUUUGAUUGUAGCAGAAGGCUGAUUGUUGU [JR_SSNG3_Sub031] (Eterna round: R96, puzzle: Same State NG 3)
apparent KD of MS2 coat protein (input ligand: FMN 200 uM): 25.9 nM
apparent KD of MS2 coat protein [1]: 34.9 nM
apparent KD of MS2 coat protein (input ligand: none): 42.5 nM

AUAAAACAUGAGGAUCACCCAUGUCAACAAAGUCGAGGAUAUGGGCAAAUAAUAUAAGAACCAGAAGGCGAAUAAU [salish99_ss1_r3_022] (puzzle: Same State 1)
apparent KD of MS2 coat protein [2]: 36.6 nM
apparent KD of MS2 coat protein [3]: 207 nM
apparent KD of MS2 coat protein [4]: 191 nM

UGGUAACAUGAGGAUCACCCAUGUCAAAUGAAUCUAGGAUAUGGGAAAGGAGAAGAGAAACCAGAAGGAGAGGUUG [Altered State 1-14 - Jieux - Same State 1] (puzzle: Same State 1)
apparent KD of MS2 coat protein [2]: 179 nM
apparent KD of MS2 coat protein [3]: 63.1 nM
apparent KD of MS2 coat protein [4]: 107 nM

GGAGCCGGUACUGAGGAUAUUCAUUUUAAAACAUGAGGAUCACCCAUGUAGGCCAGAAGGCCUUGGGAGAAGGCAGAUCGGCUCC [Biseusra - 6] (puzzle: Same State 2)
apparent KD of MS2 coat protein [2]: 19 nM
apparent KD of MS2 coat protein [3]: 180 nM
apparent KD of MS2 coat protein [4]: 281 nM

GCGUUUAACGUAGGAUAUCGACCUACAUGAGGAUCACCCAUGUCUUUGUAUAGUUUUUUUUGUUACGAGAAGGACGUUUUGCAU [JR_SSNG2_Sub070] (Eterna round: R96, puzzle: Same State NG 2)
apparent KD of MS2 coat protein (input ligand: FMN 200 uM): 75.1 nM
apparent KD of MS2 coat protein [1]: 95.2 nM
apparent KD of MS2 coat protein (input ligand: none): 122 nM

CGUCCAGCCUGAGCUGGACAAAAGCAUGUACAUGAGGAUCACCCAUGUUCAUGUACAAGCUUUUUGCUCGUCUUAUU [salish99_208a_r3_050] (puzzle: Sensor for hsa-mir-208a)
apparent KD of MS2 coat protein [2]: 681 nM
apparent KD of MS2 coat protein [3]: 16.1 nM
apparent KD of MS2 coat protein [4]: 739 nM

UGUUGUAUUACAGGAUAUCUAUUAUUUUUUUUUAGAGAAGGGUAUUCACAUGAGGAUCACCCAUGUAUAUACGAGGAAGUUGUG [JMF's solution 23] (Eterna round: R96, puzzle: Same State NG 1)
apparent KD of MS2 coat protein [1]: 45.5 nM

AAAAUGGGAUUUUACAUGAGGAUCACCCAUGUGGGUAUCACUGAGGAUAUGAGGAUCUUGAAAAAUCAGAAGGCAGAAUUUCAA [AK SSNG3-V2-21] (Eterna round: R96, puzzle: Same State NG 3)
apparent KD of MS2 coat protein (input ligand: FMN 200 uM): 410 nM
apparent KD of MS2 coat protein [1]: 288 nM
apparent KD of MS2 coat protein (input ligand: none): 329 nM

UUAUCGCUUGGAGGAUAUCCAACUAUACUAAUUGGAGAAGGCCAAGCUACAGAGCUAAGCUUGGAAGUCACUUCGAAUCAACAC [pwkr ssNG1 F9.3] (Eterna round: R96, puzzle: Same State NG 1)
apparent KD of MS2 coat protein (input ligand: FMN 200 uM): 33.2 nM
apparent KD of MS2 coat protein [1]: 5.18 nM
apparent KD of MS2 coat protein (input ligand: none): 48.8 nM

ACUCUCACAGUAGGAUAUGUAGGAUAUGCCUACAUGAGGAUCACCCAUGUAAACAUGGCAGAAGGAUAGAAGGACUUACAUGGG [pwkr ssNG2 2FMN + 1F5.4] (Eterna round: R96, puzzle: Same State NG 2)
apparent KD of MS2 coat protein (input ligand: FMN 200 uM): 108 nM
apparent KD of MS2 coat protein [1]: 44.1 nM
apparent KD of MS2 coat protein (input ligand: none): 196 nM

GGUCCAGCCUGAGCUGGACAAAAGCAUGUACAUGAGGAUCACCCAUGUCAUGUACAAGCUUUUUGCUCGUCUUAAAG [Mat - hsa-mir-208a - 85] (puzzle: Sensor for hsa-mir-208a)
apparent KD of MS2 coat protein [2]: 195 nM
apparent KD of MS2 coat protein [3]: 18.1 nM
apparent KD of MS2 coat protein [4]: 367 nM

AGUCCAGCCUGAGCUGGACAAAAGCAUGUACAUGAGGAUCACCCAUGUCAUGUAUAAGCUUUUUGCUCGUCUUAAAA [Zipper 46 - 10] (puzzle: Sensor for hsa-mir-208a)
apparent KD of MS2 coat protein [2]: 18.9 nM
apparent KD of MS2 coat protein [3]: 9.63 nM
apparent KD of MS2 coat protein [4]: 20.1 nM

GCUACAUGAGGAUCACCCAUGUGUGCGUGGGAGUGAGUGGCUUAGGAUAUCUAUGACUUGAGUUGAGAGAAGGAGGGUUGCUGU [SS-NG3-LRO13] (Eterna round: R96, puzzle: Same State NG 3)
apparent KD of MS2 coat protein (input ligand: FMN 200 uM): 70.9 nM
apparent KD of MS2 coat protein [1]: 53.6 nM
apparent KD of MS2 coat protein (input ligand: none): 79.3 nM

AGUCCAGCCUGAGCUGGACAAGAGCAUGUACAUGAGGAUCACCCAUGUCAUGUACAAGCUUUUUGCUCGUCUUAAAA [Zipper 46 - 2] (puzzle: Sensor for hsa-mir-208a)
apparent KD of MS2 coat protein [2]: 493 nM
apparent KD of MS2 coat protein [3]: 14.3 nM
apparent KD of MS2 coat protein [4]: 478 nM

GGAGCCAAGGCAGGAUAUUCAUAUUAAAUAACAUGAGGAUCACCCAUGUUGGCCAGAAGGCCAUGGGAGAAGGGCCAUGGCUCG [Xeonanis - 13 mod22] (Eterna round: R96, puzzle: Same State NG 2)
apparent KD of MS2 coat protein (input ligand: FMN 200 uM): 18.8 nM
apparent KD of MS2 coat protein [1]: 53.1 nM
apparent KD of MS2 coat protein (input ligand: none): 87.2 nM

From the supplement of paper PMC9170038
